One data set has as its target SmAP2 T40H (Sulfolobus solfataricus, UniProt Q980S8 1-87, T40H). Briefly: EMSA. Background: Mobility shift assays separate free from complexed probe on a gel.
Data set [1] addresses T1, SmAP2 (Sulfolobus solfataricus, UniProt Q980S8 1-87). Briefly: MST.
The target of a further data set is T2, SmAP1 (Sulfolobus solfataricus, UniProt Q97ZQ0 1-79).
T2 sequence: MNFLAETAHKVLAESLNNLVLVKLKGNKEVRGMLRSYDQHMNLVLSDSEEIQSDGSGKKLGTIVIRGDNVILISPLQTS
Nature of the data set: EMSA.

Data set [2] deals with T1, SmAP2. Briefly: MST. This is another data set of the same source.
The target of another data set is SmAP2, NT-647 labelled (Sulfolobus solfataricus, UniProt Q980S8 1-87). Nature of the data set: MST.

Read-outs that look alike come from different tables or passages of the source.

B1: SmAP2-cRBM, FAM (ssRNA)
RNA: GGAUGGAUAUUAGGAAAUG
As for B1, the binding result with SmAP2 T40H and with SmAP1 was “no binding” each time. Binding in the data set with SmAP2 [1] was put at a Kd of 32.7 ± 14.4 nM.

B2: 1742-RBM (ssRNA)
RNA: GGAUGGAUAUUAGGUACUGGG
On to B2, for which, in the data set with SmAP2 [2], the Kd – broadly, the constant that tells how readily two partners part at equilibrium – was 5.9 ± 5.5 nM.

B3: 2194-RBM (ssRNA)
RNA: GGAGAUAUAGUAGGAUAG
In the data set with SmAP2 [2], B3 came in with a Kd of 14.4 ± 3.3 nM.

B4: SmAP2-cRBM (ssRNA)
RNA: GGAUGGAUAUUAGGAAAUG
For B4, the affinity with SmAP2, NT-647 labelled, expressed as Kd, was 42.1 ± 17.8 nM.

B5: poly(U)15 (ssRNA)
RNA: UUUUUUUUUUUUUUU
B5 had a Kd with SmAP2, NT-647 labelled of 426 ± 92 nM.

The record behind these values is PMC5587771.
